Among the data in article PMC10434055, “Functional Characterization of Small Alarmone Synthetase and Small Alarmone Hydrolase Proteins from Treponema denticola” (Microbiology Spectrum, 2023) are Km, stoichiometry N and kcat values, retold here.

What is called Km is the substrate concentration at which the rate is half of its maximum. Usually stoichiometry N stands for a count of units in the complex or per binding partner. As usually defined, the kcat is the maximal rate divided by the concentration of active sites.

Like-named read-outs stand apart in the source and are kept apart here.

The test system of one data set is T1, Tde-SAS.
T1 construct: gene TDE1711; full length, 410 aa; pET28a recombinant in E. coli BL21(DE3), IMAC purified; recombinant MW 51,318 Da; homotetramer (SEC ~220 kDa)
Description: AMP by-product quantified by Mono Q anion-exchange chromatography. In kind it is biochemical, Treponema denticola. Conditions: 5 mM ATP, 10 mM MgCl2, pH 8.8, 37 °C, no added alarmone.

A further data set has as its system T2, Tde-SAS1–246.
T2 construct: gene TDE1711; N-terminal catalytic domain, residues 1-246, TPR domain removed; pET28a recombinant in E. coli BL21(DE3), IMAC purified; recombinant MW 32,557 Da; homotetramer (SEC ~160 kDa)
The description is as above. The settings on record: 5 mM ATP, 10 mM MgCl2, pH 8.8, 37 °C, no added alarmone. Format: biochemical, Treponema denticola.

In data set [1] the target is Tde-SAS_(1–246), catalytic domain of Treponema denticola small alarmone synthetase (Treponema denticola ATCC 35405). Description: SEC; size-exclusion chromatography of the purified recombinant protein; oligomeric state from the apparent MW against the monomer's calculated MW; column and buffer not given.
Data set [2] addresses Treponema denticola small alarmone hydrolase Tde-SAH (TDE1690) (Treponema denticola ATCC 35405). Described as above.
Data set [3] addresses Treponema denticola small alarmone synthetase Tde-SAS (TDE1711) (Treponema denticola ATCC 35405). Described as above.
Substrate in data set [4]: Nc1nc2c(ncn2[C@@H]2O[C@H](COP(=O)(O)OP(=O)(O)OP(=O)(O)O)[C@@H](OP(=O)(O)OP(=O)(O)O)[C@H]2O)c(=O)[nH]1
Kind of data set: pyrophosphatase-coupled continuous spectrophotometric phosphate-release assay (EnzChek, MESG/PNP). Format: biochemical, Treponema denticola. Conditions: 1 mM MnCl2, pH 8.4, 37 °C.

Substrate in data set [5]: Nc1nc2c(ncn2[C@@H]2O[C@H](COP(=O)(O)O)[C@@H](OP(=O)(O)OP(=O)(O)O)[C@H]2O)c(=O)[nH]1
Described as above. Format: biochemical, Treponema denticola. Conditions: 1 mM MnCl2, pH 8.4, 37 °C.

Substrate in data set [6]: Nc1nc2c(ncn2[C@@H]2O[C@H](COP(=O)(O)OP(=O)(O)O)[C@@H](OP(=O)(O)OP(=O)(O)O)[C@H]2O)c(=O)[nH]1
The data set is described as above. Format: biochemical, Treponema denticola. Conditions: 1 mM MnCl2, pH 8.4, 37 °C.

Consider `Nc1nc2c(ncn2[C@@H]2O[C@H](COP(=O)(O)OP(=O)(O)O)[C@@H](O)[C@H]2O)c(=O)[nH]1` [GDP], for which the Michaelis constant (Km) turned out to be 5.29 ± 2.61 mM with Tde-SAS (read-out: Km(GDP)) and 1.03 ± 0.3 mM in the data set with Tde-SAS1–246 (read-out: Km(GDP)).

Regarding `Nc1nc2c(ncn2[C@@H]2O[C@H](COP(=O)(O)O)[C@@H](O)[C@H]2O)c(=O)[nH]1` [GMP], the Michaelis-Menten constant (Km) in the data set with Tde-SAS (read-out: Km(GMP)) stood at 11.7 ± 1.69 mM; in the data set on Tde-SAS1–246 (read-out: Km(GMP)), 3.44 ± 0.6 mM.

In the case of `Nc1nc2c(ncn2[C@@H]2O[C@H](COP(=O)(O)OP(=O)(O)OP(=O)(O)O)[C@@H](O)[C@H]2O)c(=O)[nH]1` [GTP], the Michaelis constant (Km) turned out to be 6.09 ± 1.01 mM in the data set with Tde-SAS (read-out: Km(GTP)) and 2.91 ± 0.75 mM in the data set with Tde-SAS1–246 (read-out: Km(GTP)).

As to “Tde-SAS_(1–246), catalytic domain of Treponema denticola small alarmone synthetase (domain or fragment)”, the stoichiometry N in data set [1] was 4.

Consider “Treponema denticola small alarmone hydrolase Tde-SAH (TDE1690) (enzyme)”, for which, in data set [2], the stoichiometry N is 2.

As for “Treponema denticola small alarmone synthetase Tde-SAS (TDE1711) (enzyme)”, the stoichiometry N in data set [3] is 4.

B1: Tde-SAH (Treponema denticola ATCC 35405) (protein)
chain: MLSFDSNKEFALTRDLGVLKGIYLAPYMQVATALIGKARHAGGNMFRHQVDTMAILIDYGYIDSVLLKASLIHDVIEDIEDFNVNEILSIDSESGQVYELVLEVTKKKGQEKTEYLKNIIKNGSEKAKILKCADRISNMISLGFVTDSEFIERYCNETELYIFPIALEVNFEMYKELMALVVSRRQYLVECGYLEERVKKMRKAR
notes: full length (205 aa in the introduction, 210 aa in the abstract); pET28a recombinant in E. coli BL21(DE3), IMAC purified; recombinant MW 27,091 Da; homodimer (SEC ~44 kDa)
As for B1, the Km in data set [4] was found to be 0.21 mM; in data set [5] it was 0.12 mM; in data set [6], 0.11 mM. Further, the kcat was determined as 0.54 ± 0.04 s⁻¹ in data set [5] and 0.79 ± 0.07 s⁻¹ in data set [6].
